# Experimental data published in publication PMC3392491.
# T1: Dda K38A (bacteriophage T4, UniProt P32270 1-439, K38A)
# T1 sequence: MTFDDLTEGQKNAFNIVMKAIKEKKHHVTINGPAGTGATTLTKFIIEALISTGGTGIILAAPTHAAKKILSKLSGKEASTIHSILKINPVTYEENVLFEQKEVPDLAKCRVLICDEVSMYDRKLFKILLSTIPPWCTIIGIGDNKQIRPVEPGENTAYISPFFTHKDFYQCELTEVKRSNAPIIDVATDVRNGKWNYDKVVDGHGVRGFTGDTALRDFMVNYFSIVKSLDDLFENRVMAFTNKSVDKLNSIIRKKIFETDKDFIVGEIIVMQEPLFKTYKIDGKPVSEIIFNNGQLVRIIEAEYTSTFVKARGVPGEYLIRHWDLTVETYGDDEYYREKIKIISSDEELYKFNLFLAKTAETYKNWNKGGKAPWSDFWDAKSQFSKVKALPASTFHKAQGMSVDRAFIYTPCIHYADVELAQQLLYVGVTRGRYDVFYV
# Target: T1, Dda K38A
# Assay: X-ray crystallography
binder,measurement,value
TTTTTTTT (ssDNA) [dT8],binding result,binds
